This is an account of results in the RNAGym collection of RNA variant scans (doi:10.1093/molbev/msab373).

To fix the notation:
B1: Azoarcus group I ribozyme (parent)
chain: GUGCCUUGCGCCGGGAAACCACGCAAGGGAUGGUGUCAAAUUCGGCGAAACCUAAGCGCCCGCCCGGGCGUAUGGCAACGCCGAGCCAAGCUUCGGCGCCUGCGCCGAUGAAGGUGUAGAGACUAGACGGCACCCACCUAAGGCAAACGCUAUGGUGAAGGCAUAGUCCAGGGAGUGGCGAAAGUCACACAAACCGG

The series covers variants of B1. Briefly: reverse-splicing fitness (ratio to wild type); higher = more active; in vitro selection; Mg2+ level not given. An outline of the steps:
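An in vitro group I ribozyme library with randomized positions was T7-transcribed and gel-purified. In triplicate, 10 pmol RNA in EPPS pH 7.5 was reacted with 50 pmoles of a 30-nt RNA substrate for 1 h at 37 °C across several added MgCl2 levels (1–48 mM), then stopped with EDTA. Products were reverse transcribed from a substrate-complementary primer, PCR-amplified and sequenced (HiSeq 4000). Fitness is a variant's read proportion after selection over that before, normalised to wild type.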
As to C82G A111U A120C A145C C150U C169U, the reverse-splicing fitness is 0.0113. As for A120U A145C C150A U176C, the figure is 0.061. As for A111C A120U A145U C150U C169U U176C, the figure is 0.0142.

As for C82U A111C A120G A145G C169A U176C, the reverse-splicing fitness was 0.0272.

Turning to C82A A111C A145U C150U C169G, the reverse-splicing fitness was found to be 0.00899.

Take C82U A120C A145C C150U C169U: the reverse-splicing fitness was 0.0104. As for C82G A111U A120C A145G C150G C169G U176A, the figure is 0.0117. As for C82G A145C C150U U176A, the figure is 0.0881; as for C82U A111G A145C C150G C169U U176C, 0.00873. For C82G A111U A120U A145G C169U U176C, the reverse-splicing fitness was 0.004. For the variant C82G A145U C150G C169G U176A, the reverse-splicing fitness amounted to 0.00882. As for C82A A111G A120C A145G C150A C169G U176A, the figure is 0.0211; as for A120U C150G C169U U176C, 0.0154; as for A111C A120G C150A C169U U176C, 0.024. For A111C A120U A145C C150U C169A, the reverse-splicing fitness is 0.00231. As for C82G A111C A120U C150G C169U, the figure is 0.00609. As for C82G A145G C150G U176G, the figure is 0.0127; as for C82U A120G A145C C150A U176A, 0.0076; as for C82G A111G A120C C150G C169A U176C, 0.016. As for A120U A145G C150G U176C, the figure is 0.146; as for A111G A120G A145U C150G C169A U176G, 0.00435.

Turning to C82A A111C C150U U176A, the reverse-splicing fitness was determined as 0.036.

Turning to A120U A145U C150U C169G U176A, the reverse-splicing fitness was 0.0285. Consider C82U A111C A120U A145U C150U C169G U176G, for which the reverse-splicing fitness is 0.00201. As for C82U A111G A145U C150A C169A, the figure is 0.0078; as for C82U A120G C150U U176C, 0.0148. C82G A111U A120U A145C C150U C169U U176C: the reverse-splicing fitness was determined as 0.00208. As for A111C A120U A145U C150U C169U, the figure is 0.0452; as for C82A A111U A120C C150U C169G U176C, 0.0205. As for C82U A111C A145G, the figure is 0.266. In the case of C82A A111C A120G A145C C150A C169G, the reverse-splicing fitness was determined as 0.00754.

As to A111G A145C C169G, the reverse-splicing fitness was 0.116.

In the case of C82U A111U A120U A145U C169A U176G, the reverse-splicing fitness amounted to 0.0017. As for C82U A111U A120U A145U C169A U176A, the figure is 0.00233; as for C82G A111U A120G C150G C169G U176G, 0.00471; as for C82G A111C A120G A145C C150G C169G, 0.00722. Regarding C82U A111U A120C C150A C169G U176A, the reverse-splicing fitness was 0.0178. C82A A111G A120G A145U C150U C169A U176C: the reverse-splicing fitness was determined as 0.0116. As for C82A A111G A120U A145G C150U C169U U176C, the figure is 0.00442; as for C82G A111G A145U C150G C169A, 0.0092. C82A A111C A145C C150U C169A U176C: the reverse-splicing fitness was determined as 0.01.

On to C82U A111G A145G C150A C169U U176A, for which the reverse-splicing fitness came out at 0.0135.

Consider C82U A111C A120U A145C C150U C169A U176A, for which the reverse-splicing fitness came to 0.00213.

Consider C82G A111G A120U A145U C150A C169U U176C, for which the reverse-splicing fitness was determined as 0.0029. As for C82A C150G U176G, the figure is 0.0062.

As to C82G A111U A145G C150U C169G U176G, the reverse-splicing fitness is 0.0058. As for A111G A120C A145C C150G U176C, the figure is 0.0508. On to A111C A120C C150U C169A U176C, for which the reverse-splicing fitness was found to be 0.0142.

On to C82U A120C A145C U176C, for which the reverse-splicing fitness amounted to 0.0651. As for C82G A111G A120U A145C C150U C169G, the figure is 0.00281; as for C82A A111C A120C C150A C169A U176G, 0.00827; as for C82G A111G A120G A145C C169A, 0.0114.

For the variant C82U A111U A120G A145U C150G U176A, the reverse-splicing fitness turned out to be 0.00538.

Regarding A111C A145C C150U C169U U176C, the reverse-splicing fitness was determined as 0.0139. As for C82G A111G A145C C169A U176A, the figure is 0.0111; as for C82G A120U A145G C150G C169U U176G, 0.00451. For the variant A111C A120C A145C C169U U176G, the reverse-splicing fitness turned out to be 0.006. For A111C A120G A145C C150U C169U U176C, the reverse-splicing fitness worked out at 0.0192. As for A145G U176A, the figure is 0.863.

Turning to A111U A120U A145C C150U C169A U176G, the reverse-splicing fitness came out at 0.00275. On to A111U C150A C169G U176A, for which the reverse-splicing fitness is 0.0165. As for A111U A120C A145C C150U C169A U176A, the figure is 0.00887; as for C82U A111U A120G A145G C150U U176G, 0.00569; as for C82A A145C C169U U176C, 0.0108. As for A111C A120G A145C C150G C169A U176A, the figure is 0.00964; as for A111U A120G A145G, 0.175; as for A111G C169U U176G, 0.00769. As for C82A A111C A120G A145G C150A C169U U176G, the figure is 0.00632; as for C82A A120U A145U C150U C169G U176A, 0.00257; as for C82A A120C A145G U176G, 0.00861. With C82G A111G A120U A145G C169A U176G, the reverse-splicing fitness worked out at 0.00176. As for C82U A111U A120C A145G C150A U176C, the figure is 0.0207.

As for A111G A145G C169A U176A, the reverse-splicing fitness came out at 0.0226.

As to A111G A120C C150G C169U, the reverse-splicing fitness stood at 0.0262. As for A111G A120C C150G C169A, the figure is 0.00889; as for C82A A120U A145C C150U C169G U176C, 0.00201; as for A111C A120U A145C U176C, 0.17. As for A111G A145U U176C, the figure is 0.809; as for C82U A111U A120C A145U C150A C169A, 0.00772; as for C82U A145U C150U C169G U176C, 0.0107. As for C82U A111G A120C A145C C150G C169G U176C, the figure is 0.004; as for C82A A120C A145G C150G U176A, 0.00881. On to C82G A145G C150U U176A, for which the reverse-splicing fitness was determined as 0.264. As for C82U A111C A145U C150A U176G, the figure is 0.00817.
